Experiments:
[1] = biological target: T1, PACAP38 (Pituitary Adenylate Cyclase-Activating Polypeptide, 38 amino acids) (human, not fully specified; the C-terminal lysine is amidated); assay: cell surface binding assay (DELFIA TRF): antibody pre-incubated with PACAP38, added to PAC1-R-expressing PC-12 cells, detected with Eu anti-human IgG; the antibody is held on the cells through cell-bound PACAP38
T1 construct: In the HTRF and PC-12 cell assays the peptide was N-terminally or C-terminally biotinylated; unlabelled in SPR; also called human PACAP38; huPACAP (1-38)
T1 peptide: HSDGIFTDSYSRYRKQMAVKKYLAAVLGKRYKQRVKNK

[2] = biological target: T2, PACAP27 (Pituitary Adenylate Cyclase-Activating Polypeptide, 27 amino acids) (human, the C-terminal leucine is amidated); assay: SPR (ProteOn XPR36), antibody amine-coupled, peptide analyte, 1:1 Langmuir fit
T2 construct: also called human PACAP27
T2 peptide: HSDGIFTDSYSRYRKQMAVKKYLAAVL
Procedure: (§1) Binding affinities of monoclonal antibodies for human PACAP were estimated using SPR on the PROTEON™ XPR36 (Bio-Rad, Hercules, CA). Antibody was immobilized to the surface of general amine coupling (“GLC” or “GLM”) Chips (Bio-Rad, Hercules, CA). […] Antigen (ranging from 1.23 nM to 100 nM) was typically run sequentially with association times of 2-4 minutes and dissociation times of 3-120 minutes grouped with the PROTEON™ Manager Software (v3.1.0.6 (Bio-Rad, Hercules, CA)) and fitted using a 1:1 Langmuir binding model. Surfaces were regenerated between analyte queries using 0.85% Phosphoric Acid.

[3] = biological target: T1, PACAP38 (Pituitary Adenylate …); assay: as above
Procedure: as §1

B1: Ab1.H (antibody, V domains shown)
VH: EVQLVESGGGLVQPGGSLRLSCAASGFTVSSAVMNWVRQAPGKGLEWIGSIVASGTTYYASSANGRFTISRDNSKNTLYLQMNSLRAEDTAVYYCARGGGEFFIWGQGTLVTVSS
VL: DIQMTQSPSTLSASVGDRVTITCQSSESVYSNYLSWYQQKPGKAPKFLIYQASNLASGVPSRFSGSGSGTEFTLTISSLQPDDFATYYCAGGYSENIVGFGGGTKVEIKR
In the case of B1, the “EC50 (read off the curve)” value [1] is reported as ~2000 pM, the Kd [2] is reported as 13 pM and the koff [2] is reported as 1e-05 s⁻¹. For the same binder, the Kd [3] was 21 pM and the koff [3] was 1e-05 s⁻¹.

From US20250009876A1 (H LUNDBECK A S, published 2025)
